One molecule from patent US20070231333A1, “ANTI-5T4 ANTIBODIES AND USES THEREOF” (Wyeth, priority 2006, published 2007) can be followed below.

For assay [1], the target named is T1, 5T4-expressing PC14PE6 cells (Homo sapiens, UniProt Q13641).
T1 construct: endogenous in cells; host or cells: PC14PE6 cells
T1 sequence (Q13641 32-420): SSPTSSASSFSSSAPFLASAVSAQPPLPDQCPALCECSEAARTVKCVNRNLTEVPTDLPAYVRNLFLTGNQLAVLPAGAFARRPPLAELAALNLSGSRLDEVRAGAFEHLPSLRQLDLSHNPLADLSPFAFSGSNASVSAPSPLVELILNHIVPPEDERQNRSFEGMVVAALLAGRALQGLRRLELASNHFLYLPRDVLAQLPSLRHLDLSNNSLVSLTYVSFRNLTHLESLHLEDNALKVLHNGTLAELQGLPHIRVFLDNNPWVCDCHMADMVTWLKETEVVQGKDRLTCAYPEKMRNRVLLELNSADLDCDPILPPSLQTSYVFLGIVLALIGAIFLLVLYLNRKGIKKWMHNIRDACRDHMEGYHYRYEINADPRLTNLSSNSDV
Nature of the assay: FACS binding to 5T4-expressing PC14PE6 cells. The assay is classed as cell-based. Here is the method:
The ability of the H8, A1, A2, and A3 antibodies to bind cells expressing 5T4 antigen was assayed using fluorescence activated cell sorting (FACS) of PC14PE6 cells.
For orientation: A flow cytometer gives signals particle by particle.

In the next assay the target is T2, human 5T4 antigen (Homo sapiens, UniProt Q13641).
T2 sequence (Q13641 32-420): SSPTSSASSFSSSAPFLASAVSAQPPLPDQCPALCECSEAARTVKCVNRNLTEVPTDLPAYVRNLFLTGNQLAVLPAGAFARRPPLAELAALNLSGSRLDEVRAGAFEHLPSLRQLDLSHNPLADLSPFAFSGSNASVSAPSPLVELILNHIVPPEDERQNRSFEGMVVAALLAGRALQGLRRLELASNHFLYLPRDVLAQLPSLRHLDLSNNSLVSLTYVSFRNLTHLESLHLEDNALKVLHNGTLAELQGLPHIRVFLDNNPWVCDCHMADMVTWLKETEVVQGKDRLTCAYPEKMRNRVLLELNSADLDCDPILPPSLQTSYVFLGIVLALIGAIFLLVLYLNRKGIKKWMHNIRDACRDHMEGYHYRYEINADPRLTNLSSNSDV
Briefly: BIACORE analysis of antibody binding to human 5T4 antigen immobilized on a CM5 chip. The conditions noted are these: murine antibodies, Table 3. On the procedure:
To assess the binding specificity and affinity of the A1, A2, and A3 antibodies, BIACORE® analysis was performed using human 5T4 antigen immobilized on a CM5 chip. BIACORE® technology utilizes changes in the refractive index at the surface layer upon binding of the antibody to the 5T4 antigen immobilized on the layer. Binding is detected by surface plasmon resonance (SPR) of laser light refracting from the surface. Analysis of the signal kinetics on rate and off rate allows discrimination between non-specific and specific interactions. The H8 anti-5T4 antibody was used as a control. H8 is a hybridoma-generated monoclonal mouse IgG1 antibody described in PCT International Publication No. WO 98/55607 and in Forsberg et al. (1997) J. Biol. Chem. 272(19):[…].
To assess the binding specificity and affinity of the chimeric and humanized H8, A1, A2, and A3 antibodies, BIACORE® analysis was performed using human 5T4 antigen immobilized on a CM5 chip. See Example 2.

B1: A2: murine anti-5T4 monoclonal antibody (IgG2b heavy chain); VH residues 19-135 of SEQ ID NO:6, VL residues 23-130 of SEQ ID NO:8 (antibody, listed as Mus musculus, V domains shown)
VH: MEWRIFLFILSGTAGVHSQVQLQQSRPELVKPGASVKMSCKASGYTFTDYVISWVKQRTGQGLEWIGEIYPGSNSIYYNEKFKGRATLTADKSSSTAYMQLSSLTSEDSAVYFCAMGGNYGFDYWGQGTTLTVSS
VL: MDFQVQIFSFLLISASVIMSRGQIVLTQSPAIMSASLGERVTLTCTASSSVNSNYLHWYQQKPGSSPKLWIYSTSNLASGVPARFSGSGSGTSYSLTISSMEAEDAATYYCHQYHRSPLTFGAGTKLELK
modifications: (1)..(18) leader sequence; (19)..(135) heavy chain variable region; (44)..(53) CDR1; (68)..(84) CDR2; (117)..(124) CDR3; (1)..(22) leader sequence; (23)..(130) light chain variable region; (46)..(56) CDR1; (73)..(79) CDR2; (112)..(120) CDR3
On to B1, for which the “binding to 5T4-expressing PC14PE6 cells (in words)” value in assay [1] was “significantly lower”. Moreover, in the assay with human 5T4 antigen, the “KA” value turned out to be 6.5e+07 M⁻¹, the “ka” value turned out to be 56000 M⁻¹ s⁻¹ and the “kd” value worked out at 0.00087 s⁻¹.
